Source: patent publication US20230140797A1 (published 2023)
Substitutions are numbered along the chain they refer to. Read-outs that look alike come from different tables or passages of the source.

Key:
[1] = target: human FcγRIa extracellular domain with C-terminal His tag (human, UniProt P12314 16-292); experiment: SPR
Target sequence in this assay (P12314 16-292): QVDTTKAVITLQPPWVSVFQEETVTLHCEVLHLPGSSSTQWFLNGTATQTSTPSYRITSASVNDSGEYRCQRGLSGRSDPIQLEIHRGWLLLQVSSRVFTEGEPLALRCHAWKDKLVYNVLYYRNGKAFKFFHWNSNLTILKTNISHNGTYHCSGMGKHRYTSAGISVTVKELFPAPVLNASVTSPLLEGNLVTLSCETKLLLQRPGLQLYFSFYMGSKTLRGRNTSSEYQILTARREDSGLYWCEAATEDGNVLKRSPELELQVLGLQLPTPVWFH

[2] = target: T1, human FcγRIIa type R extracellular domain with C-terminal His tag (human, UniProt P12318 34-217); experiment: SPR
T1 sequence (looked up): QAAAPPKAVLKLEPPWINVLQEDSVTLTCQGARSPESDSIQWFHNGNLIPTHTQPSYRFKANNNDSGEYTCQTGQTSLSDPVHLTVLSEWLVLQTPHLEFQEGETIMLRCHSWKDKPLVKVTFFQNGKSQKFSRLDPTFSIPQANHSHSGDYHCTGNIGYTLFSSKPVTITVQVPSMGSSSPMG

[3] = target: T2, human FcγRIIb extracellular domain with C-terminal His tag (human, UniProt P31994 43-217); experiment: ratio of SPR KD values
T2 sequence (looked up): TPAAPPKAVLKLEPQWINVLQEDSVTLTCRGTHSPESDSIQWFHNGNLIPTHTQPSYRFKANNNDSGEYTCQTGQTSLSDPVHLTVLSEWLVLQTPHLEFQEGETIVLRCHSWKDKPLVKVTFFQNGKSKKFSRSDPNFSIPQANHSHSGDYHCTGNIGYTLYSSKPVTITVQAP

[4] = target: T2, human FcγRIIb extracellular domain with …; experiment: SPR
[5] = target: human FcγRIIIa type V extracellular domain with C-terminal His tag (human, UniProt P08637 17-208); experiment: SPR
Target sequence in this assay (P08637 17-208 F176V): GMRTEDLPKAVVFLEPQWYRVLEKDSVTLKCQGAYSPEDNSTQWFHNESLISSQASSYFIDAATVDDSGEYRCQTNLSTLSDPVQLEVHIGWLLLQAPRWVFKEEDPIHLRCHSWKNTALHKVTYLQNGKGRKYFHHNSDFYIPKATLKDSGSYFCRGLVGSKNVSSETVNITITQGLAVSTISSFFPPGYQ

[6] = target: T3, human FcγRIIa type H extracellular domain with C-terminal His tag (human, UniProt P12318 34-217); experiment: SPR
T3 sequence (looked up): T1 sequence (looked up) with R134H

[7] = target: T4, human FcγRIIIa type V extracellular domain with C-terminal His tag (human, UniProt P08637 17-208); experiment: SPR; remark: listed apart in the source
T4 sequence (P08637 17-208 F176V): as above

[8] = target: human FcγRIa extracellular domain with C-terminal His tag (human, UniProt P12314 16-292); experiment: SPR; remark: listed apart in the source
Target sequence in this assay (P12314 16-292): as the sequence (P12314 16-292) above

[9] = target: T5, human FcγRIIa type H (131His) extracellular domain with C-terminal His tag (human, UniProt P12318 34-217); experiment: SPR
T5 sequence (looked up): T1 sequence (looked up) with R134H

[10] = target: T6, human FcγRIIa type R (131Arg) extracellular domain with C-terminal His tag (human, UniProt P12318 34-217); experiment: SPR
T6 sequence (looked up): T1 sequence (looked up)

[11] = target: T6, human FcγRIIa type R (131Arg) …; experiment: ratio of SPR KDs
[12] = target: T4, human FcγRIIIa type V extracellular …; experiment: SPR; remark: listed apart in the source
[13] = target: T7, human FcγRIIb extracellular domain with C-terminal His tag (human, UniProt P31994 43-217); experiment: SPR; remark: listed apart in the source
T7 sequence (looked up): T2 sequence (looked up)

[14] = target: T7, human FcγRIIb extracellular domain with …; experiment: SPR; remark: listed apart in the source
[15] = target: T7, human FcγRIIb extracellular domain with …; experiment: SPR; remark: listed apart in the source
[16] = target: T7, human FcγRIIb extracellular domain with …; experiment: SPR; remark: listed apart in the source
[17] = target: T8, human FcγRIIa type H extracellular domain with C-terminal His tag (human, UniProt P12318 34-217); experiment: SPR; remark: listed apart in the source
T8 sequence (looked up): T1 sequence (looked up) with R134H

[18] = target: T9, human FcγRIIa type R extracellular domain with C-terminal His tag (human, UniProt P12318 34-217); experiment: SPR; remark: listed apart in the source
T9 sequence (looked up): T1 sequence (looked up)

[19] = target: T10, human FcγRIIb extracellular domain with C-terminal His tag (human, UniProt P31994 43-217); experiment: Biacore SPR
T10 sequence (looked up): T2 sequence (looked up)

[20] = target: T11, human FcγRIIa type R extracellular domain with C-terminal His tag (human, UniProt P12318 34-217); experiment: Biacore SPR
T11 sequence (looked up): T1 sequence (looked up)

[21] = target: human IgA (hIgA) (human); experiment: Biacore T200 SPR
[22] = target: T12, human FcγRIIa type H extracellular domain with C-terminal His tag (human, UniProt P12318 34-217); experiment: SPR Biacore, KD by Equation 2
T12 sequence (looked up): T1 sequence (looked up) with R134H

[23] = target: T13, human FcγRIIb extracellular domain with C-terminal His tag (human, UniProt P31994 43-217); experiment: SPR Biacore, ratio of KDs
T13 sequence (looked up): T2 sequence (looked up)

[24] = target: T14, human FcγRIIa type R extracellular domain with C-terminal His tag (human, UniProt P12318 34-217); experiment: SPR Biacore, kinetic fit
T14 sequence (looked up): T1 sequence (looked up)

B1: IL6R-BP192/IL6R-L (antibody, human IgG1, kappa)
heavy: QVQLQESGPGLVKPSETLSLTCAVSGHSISHDHAWSWVRQPPGEGLEWIGFISYSGITNYNPSLQGRVTISRDNSKNTLYLQMNSLRAEDTAVYYCARSLARTTAMDYWGEGTLVTVSSASTKGPSVFPLAPSSKSTSGGTAALGCLVKDYFPEPVTVSWNSGALTSGVHTFPAVLQSSGLYSLSSVVTVPSSSLGTQTYICNVNHKPSNTKVDKKVEPKSCDKTHTCPPCPAPDLLGGDSVFLFPPKPKDTLMISRTPEVTCVVVDVSDEDGEVKFNWYVDGVEVHNAKTKPREEQDNSTYRVVSVLTVLHQDWLNGKEYKCKVSNKALPKPIEKTISKAKGQPREPQVYTLPPSRDELTKNQVSLTCLVKGFYPSDIAVEWESNGQPENNYKTTPPVLDSDGSFFLYSKLTVDKSRWQQGNVFSCSVMHEALHNHYTQESLSLSP
light: not shown
[1]
  Kd: 0.0065 µM
[2]
  Kd: 2.5 µM

B2: IL6R-BP198/IL6R-L (antibody, human IgG1, kappa)
heavy: B1 heavy with L236Y, D298Y, K328A
light: not shown
[3]
  KD (IIb) of the parent polypeptide/KD (IIb) of the altered polypeptide: 15.7 fold

B3: IL6R-BP199/IL6R-L (antibody, human IgG1, kappa)
heavy: B1 heavy with D270H, G273P, D298Y, K328A, K332R
light: not shown
[4]
  Kd: 0.49 µM
[1]
  Kd: 0.0064 µM
[3]
  KD (IIb) of the parent polypeptide/KD (IIb) of the altered polypeptide: 6.3 fold
[5]
  Kd: 61 µM
[6]
  Kd: 28 µM

B4: IL6R-BP253/IL6R-L (antibody, human IgG1, kappa)
heavy: B1 heavy with D235E, D240P, S269E, D270H, G273P, D298Y, L330F, K332A
light: not shown
[7]
  Kd: 3.8 µM

B5: IL6R-BP266/IL6R-L (antibody, human IgG1, kappa)
heavy: B1 heavy with G239D, D270E, D298Y, K332R
light: not shown
[8]
  Kd: 1.4 µM

B6: IL6R-BP269/IL6R-L (antibody, human IgG1, kappa)
heavy: B1 heavy with D235E, G239D, D270E, K332A
light: not shown
[8]
  Kd: 1.4 µM

B7: IL6R-BP497/IL6R-L (antibody, human IgG1, kappa)
heavy: B1 heavy with G239D, V266I, S269A, D270E, D298Y, A329G, K332R
light: not shown
[9]
  Kd: 0.85 µM
[10]
  Kd: 0.035 µM
[11]
  KD (IIaR) of parent polypeptide/KD (IIaR) of altered polypeptide: 12.9
[12]
  Kd: 20 µM

B8: BP505 (antibody, human IgG1, kappa)
heavy: B1 heavy with G239D, V266I, S269A, D270E, E274D, D298Y, K332A
light: not shown
[13]
  KD (IIaH)/KD (IIb): 514
[14]
  Kd: 2.1 µM
[15]
  KD (IIaR)/KD (IIb): 20

B9: BP564 (antibody, human IgG1, kappa)
heavy: B1 heavy with D235E, G239D, D270E, E274D, K332R
light: not shown
[13]
  KD (IIaH)/KD (IIb): 454
[14]
  Kd: 0.0022 µM
[15]
  KD (IIaR)/KD (IIb): 26.2

B10: IL6R-BP538/IL6R-L (antibody, human IgG1, kappa)
heavy: B1 heavy with D235E, G239D, V266I, D270E, D298Y, K332R
light: not shown
[13]
  KD (IIaH)/KD (IIb): 566
[16]
  KD (IIb) of parent polypeptide/KD (IIb) of altered polypeptide: 507
[15]
  KD (IIaR)/KD (IIb): 30.6

B11: IL6R-BP540/IL6R-L (antibody, human IgG1, kappa)
heavy: B1 heavy with D235E, G239D, V266I, D270E, E274P, K332R
light: not shown
[13]
  KD (IIaH)/KD (IIb): 803
[17]
  Kd: 4.8 µM
[15]
  KD (IIaR)/KD (IIb): 36.8

B12: IL6R-BP559/IL6R-L (antibody, human IgG1, kappa)
heavy: B1 heavy with D235E, V266I, S269A, D270E, E274D, K332A
light: not shown
[13]
  KD (IIaH)/KD (IIb): 712
[18]
  Kd: 0.016 µM
[15]
  KD (IIaR)/KD (IIb): 58.4

B13: IL6R-BP478/IL6R-L (antibody)
heavy: QVQLQESGPGLVKPSETLSLTCAVSGHSISHDHAWSWVRQPPGEGLEWIGFISYSGITNYNPSLQGRVTISRDNSKNTLYLQMNSLRAEDTAVYYCARSLARTTAMDYWGEGTLVTVSSASTKGPSVFPLAPCSRSTSESTAALGCLVKDYFPEPVTVSWNSGALTSGVHTFPAVLQSSGLYSLSSVVTVPSSSLGTKTYTCNVDHKPSNTKVDKRVESKYGPPCPPCPAPDLLGDDSVFLFPPKPKDTLMISRTPEVTCVVVDVSDEDGEVKFNWYVDGVEVHNAKTKPREEQDNSTYRVVSVLTVLHQDWLNGKEYKCKVSNKALPRPIEKTISKAKGQPREPQVYTLPPSRDELTKNQVSLTCLVKGFYPSDIAVEWESNGQPENNYKTTPPVLDSDGSFFLYSKLTVDKSRWQQGNVFSCSVMHEALHNHYTQESLSLSP
light: not shown
[19]
  fold binding against IL6R-BP230/IL6R-L: 1.1 times
[20]
  fold binding against IL6R-BP230/IL6R-L: 0.9 times

B14: GA2-IgG1 (antibody, V domains shown)
VH: QVQLVQSGAEVKKPGSSVKVSCKASGGTFSSYAISWVRQAPGQGLEWMGGIIPIFGTANYAQKFQGRVTITADESTSTAYMELSSLRSEDTAVYYCARPRWETAISSDAFDIWGQGTMVTVSS
VL: DIQMTQSPSSLSASVGDRVTITCRASQSISDDLNWYQQKPGKAPKLLIYEASNLQSGVPSRFSGSGSGTDFTLTISSLQPEDFATYYCQQHSSSPLTFGQGTKVEIKR
[21]
  Ca-dependent hIgA-binding activity (fold): 100 times

B15: IL6R-2B171/IL6R-L (antibody, human IgG1, kappa)
heavy: B1 heavy with D235E, D270H, G273P, D298Y, V325L, K332A
light: not shown
[22]
  Kd: 340 µM
[23]
  KD (IIb) of the parent polypeptide/KD (IIb) of the altered polypeptide: 2.9 fold (parent IL6R-B3/IL6R-L)

B16: IL6R-BP107/IL6R-L (antibody, human IgG1, kappa)
heavy: B1 heavy with D235E, D270E, G273P, D298Y, K332A
light: not shown
[22]
  Kd: 32 µM
[23]
  KD (IIb) of the parent polypeptide/KD (IIb) of the altered polypeptide: 3.3 fold (parent IL6R-B3/IL6R-L)

B17: IL6R-BP119/IL6R-L (antibody, human IgG1, kappa)
heavy: B1 heavy with D235E, D270H, G273P, D298Y, K328M, K332A
light: not shown
[24]
  Kd: 0.099 µM
[23]
  KD (IIb) of the parent polypeptide/KD (IIb) of the altered polypeptide: 2.7 fold (parent IL6R-B3/IL6R-L)

B18: IL6R-BP120/IL6R-L (antibody, human IgG1, kappa)
heavy: B1 heavy with D235E, D270H, G273P, D298Y, K328E, K332A
light: not shown
[24]
  Kd: 5.6 µM
[23]
  KD (IIb) of the parent polypeptide/KD (IIb) of the altered polypeptide: 3 fold (parent IL6R-B3/IL6R-L)
